Laboratory results taken from the supplement of paper PMC9170038.

Tested on: MS2 coat protein
Experiment: apparent KD of MS2 coat protein; designed switch direction (-1 OFF switch, 1 ON switch): -1; higher = weaker reporter binding
How it was run: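 Transcription of designed RNA switches on Illumina chips was done by stalled E. coli RNA polymerase. SNAP-549-labelled MS2 coat protein was then titrated in doubling steps from 0.7 or 1.5 nM to 3 µM, with steps of 0.8–1.5 h at the lowest and 10–20 min at the highest concentration. The per-design median over clusters of curve-fitted normalised fluorescence is reported as apparent KD.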

[1] = input ligand: microRNA oligo, concentration not stated
[2] = Eterna round: R95, input ligand: microRNA oligo, concentration not stated
[3] = Eterna round: R95, input ligand: FMN 200 uM
[4] = Eterna round: R95, input ligand: none

| Sequence | apparent KD of MS2 coat protein (input ligand: FMN 200 uM) | apparent KD of MS2 coat protein (input ligand: none) | apparent KD of MS2 coat protein [2] | further results |
| --- | --- | --- | --- | --- |
| CUUUUGUGAGGAUAUUAGUAGUAAAUAAAUAAAAUUUCUACUGAGAAGGCACAUGAGGAUCACCCAUGUUCCUC [salish99_ex4_r3_061] (Eterna round: R96, puzzle: Exclusion 4) | 347 nM | 33.9 nM | – | apparent KD of MS2 coat protein [1]: 34 nM |
| CUUUUGUGAGGAUAUUAGUAGUAAAUAAAUAAAAUUUCUACUGAGAAGGCACAUGAGGAUCACCCAUGUUCCUC [salish99_ex4_r3_061] (puzzle: Exclusion 4) | – | – | 33.2 nM | – |
| CUUUUGUGAGGAUAUUAGUAGUAAAUAAUUAAAAUUAUUACUGAGAAGGCACAUGAGGAUCACCCAUGUAACUC [JR_Ex4_Sub027] (Eterna round: R97, puzzle: Exclusion 4) | 400 nM | 49.9 nM | – | – |
| CUUUUGUGAGGAUAUUAGUAGUAAAUAUAUAAAAUUACUACUGAGAAGGCACAUGAGGAUCACCCAUGUUCCUC [salish99_ex4_r3_055] (puzzle: Exclusion 4) | – | – | 36.2 nM | – |
| CUUUUGUGAGGAUAUUAGUAGUAUAUAAAUAAAAUUACUACUGAGAAGGCACAUGAGGAUCACCCAUGUUCCUC [salish99_ex4_r3_052] (puzzle: Exclusion 4) | – | – | 30.4 nM | – |
| CUUUUGUGAGGAUAUUGGUAGUAAAUAAAUAAAAUUAUUACCGAGAAGGCACAUGAGGAUCACCCAUGUUCCUC [Salish 062 v17] (Eterna round: R97, puzzle: Exclusion 4) | 823 nM | 50.7 nM | – | – |
| CUUUUGUUAGGAUAUUAGUAGUAAAUAAAUAAAAUUACUACUGAGAAGGCACAUGAGGAUCACCCAUGUUCCUC [salish99_ex4_r3_045] (puzzle: Exclusion 4) | – | – | 25.3 nM | – |
| CUUUUUUCUGUAAGGAUAUAGCCCGCGAGAUGUGGCUAGAAGGUACAUGAGGAUCACCCAUGUGUGUCCACAUU [Eternabot (L1) Solution 55] (Eterna round: R97, puzzle: Brourd's mod of Exclusion 4) | 141 nM | 46.8 nM | – | – |
| GAAAACGAAGAGGAUAUUUGAUAUCAUAGCUUCAAAGAAGGCUUCACAUGAGGAUCACCCAUGUGAUCUUCAAA [jl-ex6-4.06 ViennaUCT mod] (Eterna round: R97, puzzle: Exclusion 6) | 95.8 nM | 22.7 nM | – | – |
| GAAAACGCAGAGGAUAUAUCAGAUCAAAGCUGCAUAGAAGGCUGCACAUGAGGAUCACCCAUGUGGUCUUCAAA [jl-ex6-4.01 ViennaUCT mod] (Eterna round: R97, puzzle: Exclusion 6) | 243 nM | 20.9 nM | – | – |
| GAAAACGCAGAGGAUAUAUCAGAUCAAAGCUGCAUAGAAGGCUGCACAUGAGGAUCACCCAUGUGGUCUUUAAA [jl-ex6-4.00 ViennaUCT mod] (Eterna round: R97, puzzle: Exclusion 6) | 218 nM | 22 nM | – | – |
| GAAAACGCAGAGGAUAUUUCAGAUCAAAGCUGCAAAGAAGGCUGCACAUGAGGAUCACCCAUGUGGUCUUCAAG [Mat - Exclusion 6 - JL Mod - D9] (Eterna round: R97, puzzle: Exclusion 6) | 152 nM | 29 nM | – | – |
| GAAAACGCUGAGGAUAUUUCUGAUCAAAGCAGCAAAGAAGGCAGCACAUGAGGAUCACCCAUGUGGUCUUCAAU [Mat - Exclusion 6 - JL Mod - D11] (Eterna round: R97, puzzle: Exclusion 6) | 445 nM | 33 nM | – | – |
| GAAAAGAGAGGAUAUACUUGAGGAUCACCCAAGUAGGCGGUAACCGCCACGGGCCAGAGUAGAAGGCUCAAAAC [Beceanlave] (Eterna round: R97, puzzle: Exclusion 3) | 141 nM | 32.2 nM | – | – |
| GAAAAGCGAGGAUAUACAUGAGGAUCACCCAUGUAGCAAAAGCGUGCGGCGGUCGGAGGUAGAAGGCGCACAAC [Zamara] (puzzle: Exclusion 3) | – | – | 51.8 nM | apparent KD of MS2 coat protein [3]: 81.2 nM; apparent KD of MS2 coat protein [4]: 100 nM |
| GAAAAGGCAGGAUAUGCAAUGUUUGUCCCAUCUCUCCUAAGACAUGAGGAUCACCCAUGUAGAAGGGCCAGGAA [Eternabot (L2) Solution 62] (Eterna round: R97, puzzle: Exclusion 2) | 33.7 nM | 26.5 nM | – | – |
| GAAAAGGUAGGAUAUACGAAAAAAAAGGGUAGAAAAAAAGCACAUGAGGAUCACCCAUGUAGAAGGACCAAAAG [salish99_ex2_r3_018] (Eterna round: R96, puzzle: Exclusion 2) | – | – | – | apparent KD of MS2 coat protein [1]: 29.6 nM |
| GAAAAGGUAGGAUAUACGAAAAAAAAGGGUAGAAAAAAAGCACAUGAGGAUCACCCAUGUAGAAGGACCAAAAG [salish99_ex2_r3_018] (puzzle: Exclusion 2) | – | – | 32.5 nM | apparent KD of MS2 coat protein [3]: 137 nM; apparent KD of MS2 coat protein [4]: 33.5 nM |
| GAAAAGGUAGGAUAUACGAAAAAAAAGGGUAGAAAAAGAACACAUGAGGAUCACCCAUGUAGAAGGACCAAAAG [salish99_ex2_r3_020] (puzzle: Exclusion 2) | – | – | 20.9 nM | apparent KD of MS2 coat protein [3]: 72.8 nM; apparent KD of MS2 coat protein [4]: 20.3 nM |
| GAAAAGGUAGGAUAUACGAAAAAAAAGGGUAGAAAAUAAACACAUGAGGAUCACCCAUGUAGAAGGACCAAAAG [salish99_ex2_r3_075] (puzzle: Exclusion 2) | – | – | 25.3 nM | apparent KD of MS2 coat protein [3]: 92 nM; apparent KD of MS2 coat protein [4]: 25.7 nM |
| GAAAAGGUAGGAUAUACGAUAAGAAAGGGUAGAGAAGAAACACAUGAGGAUCACCCAUGUAGAAGGACCAAAAG [salish99_ex2_r3_100] (puzzle: Exclusion 2) | – | – | 23.6 nM | apparent KD of MS2 coat protein [3]: 146 nM; apparent KD of MS2 coat protein [4]: 33.2 nM |
| GAAAAGGUAGGAUAUACGAUAAGAAAGGGUAGAGAAUAAACACAUGAGGAUCACCCAUGUAGAAGGACCAAAAG [salish99_ex2_r3_101] (puzzle: Exclusion 2) | – | – | 30 nM | apparent KD of MS2 coat protein [3]: 148 nM; apparent KD of MS2 coat protein [4]: 26 nM |
| GAAAAGUAAGGAUAUGUCUCCAGUGAGGAAACUCACUGGAGACAGAAGGUACAUGAGGAUCACCCAUGUUCCUC [ExDelusion 5 - Jieux - Exclusion 4] (Eterna round: R97, puzzle: Exclusion 4) | 289 nM | 42.7 nM | – | – |
| GAAAAGUAAGGAUAUUCACACAGUGAGGAAACUCACUGUGUGGAGAAGGUACAUGAGGAUCACCCAUGUUUCUC [ExDelusion 1 - Jieux - Exclusion 4] (Eterna round: R97, puzzle: Exclusion 4) | 229 nM | 30.3 nM | – | – |
| GAAAAGUGAGGAUAUGGUAAUGUAAGUAUGUAGUAUGUAAUCCAGAAGGCACAUGAGGAUCACCCAUGUAAAAG [Mat - Exclusion 4 - D102] (puzzle: Exclusion 4) | – | – | 24.4 nM | – |
| GAAAAUGUAGAGGAUAUUUCAGAUCAAGACUGCAAAGAAGGCUGCACAUGAGGAUCACCCAUGUGGUCAACAAA [Mod of Quesina 15 - Jieux - Exclusion 6] (Eterna round: R97, puzzle: Exclusion 6) | 79.1 nM | 22.3 nM | – | – |
| GAAAGGGCAGGAUAUGCAGAGAGAGAGAGAGAGAGAAAAAAACAUGAGGAUCACCCAUGUAGAAGGGCCGAAAG [salish99-ex2-06] (Eterna round: R96, puzzle: Exclusion 2) | 31 nM | 34.2 nM | – | apparent KD of MS2 coat protein [1]: 27.8 nM |
